Results as given in patent US6689878B2, “Target of RNAIII activating protein (TRAP)” (The Regents of the University of California, priority 1998, dated 2004).

Experiment: Sensitivity of TRAP phosphorylation to acidic and basic conditions
Type: physicochemical, Staphylococcus aureus
Text: Two-component systems act through phosphorylation of the substrate domain of the sensor protein and subsequent transfer of the phosphate to an aspartate residue in the regulator protein. The initial phosphorylation is catalyzed by a protein histidine kinase domain in the sensor protein and results in an N-phosphorylated histidine residue, which is stable in alkaline conditions but not in acidic conditions (Wei et al. Methods Enymol. 200:388-414 (1991)). To test whether TRAP may be histidine-phosphorylated and therefore a candidate sensor to RAP, phosphorylated TRAP was tested for sensitivity to acidic and basic conditions. Phosphorylated TRAP was incubated at pH ranging from 3-10, for 10 min at room temperature. The mixture was then applied to SDS PAGE and the gel autoradiographed.

B1: Phosphorylated TRAP: approximately 21 kDa S. aureus protein target of RAP, SEQ ID NO:2, phosphorylated by RAP (protein)
chain: MKKLYTSYGTYGFLHQIKINNPTHQLFQFSASDTSVIFEETDGETVLKSPSIYEVIKEIGEFSEHHFYCAIFIPSTEDHAYQLEKKLISVDDNFRNFGGFKSYRLLRPAKGTTYKIYFGFADRHAYEDFKQSDAFNDHFSKDALSHYFGSSGQHSSYFERYLYPIKE
modifications: phosphorylated
Stability of TRAP phosphorylation in lower pHs (lower pHs (range tested pH 3-10), 10 min at room temperature): labile | Stability of TRAP phosphorylation at pH 8-10 (pH 8-10, 10 min at room temperature): stable
